Results reported in patent US8410045B2, “Camptothecin-peptide conjugates and pharmaceutical compositions containing the same” (Drais Pharmaceuticals, Inc., priority 2006, dated 2013).
Where two headings read alike, the source gives them in different places. Where a SMILES comes first, the peptide text is derived from it. Where no end group is shown, it is not given here. Side-chain parts run from the residue outwards. [ ]: non-standard residue; d: D form. The star is where a group is joined. ξ: configuration not given here. X9 = CCc1c2c(nc3ccc(OC(=O)[C@H]4CC[C@H](CNC(=O)CCOCCOCCOCCOCCNC(=O)CCN5C(=O)CC(*)C5=O)CC4)cc13)-c1cc3c(c(=O)n1C2)COC(=O)[C@]3(O)CC; X6 = CCc1c2c(nc3ccc(OC(=O)[C@H]4CC[C@H](CNC(=O)C5CCC(CN6C(=O)CC(*)C6=O)CC5)CC4)cc13)-c1cc3c(c(=O)n1C2)COC(=O)[C@]3(O)CC; X7 = CCc1c2c(nc3ccc(OC(=O)CCCCCCCCCCN4C(=O)CC(*)C4=O)cc13)-c1cc3c(c(=O)n1C2)COC(=O)[C@]3(O)CC; X5 = CCc1c2c(nc3ccc(OC(=O)CCN4C(=O)CC(*)C4=O)cc13)-c1cc3c(c(=O)n1C2)COC(=O)[C@]3(O)CC; X8 = CC[C@@]1(O)C(=O)OCc2c1cc1n(c2=O)Cc2cc3cc(OC(=O)CCN4C(=O)CC(*)C4=O)ccc3nc2-1; SN38 = active drug (irinotecan metabolite) conjugated via the linker; MIC = not defined here; ξC = NC(CS)C(=O)O

What was measured:
[1] = Stability of conjugates in citrated plasma at 37° C. (half life time, HPLC fluorescence); assay type: in vitro ADME, human; conditions: for half-life: human, plasma
Protocol: (§1) The stability of the conjugates was tested in citrated plasma (10% (v/v) sodium citrate buffer, 0.106M) from different species (see Table 1 below). The conjugates at 2.55 μM were incubated at 37° C. in plasma. Samples were analysed using the HPLC fluorescence method described below (see chromatographic equipment and conditions) following TFA/acetonitrile extraction and the amount of free camptothecin, analogs or derivatives thereof (e.g. SN38) released by the conjugates was measured.
(§2) Chromatographic equipment and conditions: 150 μL of each sample were placed in 1.5 mL micro-centrifuge tubes. 450 μL of 5% (v/v) TFA in H2O was added to each tube and the mixture was vortexed for 5 seconds. Samples were then centrifuged at 16000 g, 3 minutes at +4° C. 100 μL of supernatant were placed in 1.5 mL micro-centrifuge tubes. Methanol (100 μL) was then immediately added and vortexed for 5 seconds. Samples were then centrifuged at 16000 g, 3 minutes at room temperature. 150 μL of supernatant were recovered for HPLC analysis. Conjugates, metabolites and camptothecin derivative (i.e. SN38) were separated by high-performance liquid chromatography (HPLC; Agilent 1100 series equipped with a fluorescence detector) using a 4.6×100 mm ([…] particle size) Luna C18(2) column (Phenomenex ref. 00D-4251-E0, Le Pecq, France). The aqueous component of the mobile phase (A) was 0.1% (v/v) TFA in water. The organic modifier (B) was acetonitrile containing 0.1% (v/v) TFA. For the conjugate and its metabolites an elution gradient increasing linearly the proportion of B from 15 to 37% in 2 min, from 37 to 47% in 6 min, followed by 2 min at 90% was applied with a constant flow rate of 1.2 mL/min. The proportion of B was then returned to the initial condition for 3.0 min.
(§3) The half life time of conjugate corresponds to the time necessary to have 50% by mole of free camptothecin, analogs or derivatives thereof released by the conjugates of the invention. In human plasma, the half life time of conjugate DPV1047-linker #1-SN38 (less than 5 mins) was shorter than that of conjugate DPV1047-linker #2-SN38 (6-7 mins), which, in turn, was shorter than that of conjugate DPV1047-linker #3-SN38 (12 mins).
(§4) As in Example II, the stability of these conjugates was tested in either human or dog plasma. Following incubation at 37° C., samples were analyzed after a TFA acetonitrile extraction by the HPLC fluorescence method described in Example II. The in vitro cytotoxicity (IC50) of these compounds was also evaluated.

[2] = as above; assay type: in vitro ADME; conditions: dog, read-out: Dog Plasma Half life time
Protocol: as §1, §2, §3, §4

[3] = test system: HCT 116 human colorectal carcinoma tumor
[4] = Table 10, SN38 conjugates, read-out: Human Plasma Half life time
[5] = Table 14, 10-Hydroxycamptothecin conjugates, read-out: Human Plasma Half life time
[6] = Table 14, 10-Hydroxycamptothecin conjugates
[7] = DPV1047-linker-SN38, 2.55 μM, citrated plasma, read-out: Half life time, Human plasma
[8] = DPV1047-linker-SN38, 2.55 μM, citrated plasma

Compound	half-life [1, 4] [min]	half-life ([2]; Table 10, SN38 conjugates) [min]	half-life [1, 7] [min]	other results
CCc1c2c(nc3ccc(OC(=O)CCN4C(=O)CC(SC[C@H](N)C(=O)N[C@@H](CCCNC(=N)N)C(=O)N[C@@H](CCC(N)=O)C(=O)N[C@H](C(=O)N[C@@H](CCCCN)C(=O)N[C@H](C(=O)N[C@@H](Cc5c[nH]c6ccccc56)C(=O)N[C@@H](Cc5ccccc5)C(=O)N[C@@H](CCC(N)=O)C(=O)N[C@@H](CC(N)=O)C(=O)N[C@@H](CCCNC(=N)N)C(=O)N[C@@H](CCCNC(=N)N)C(=O)N[C@@H](CCSC)C(=O)N[C@@H](CCCCN)C(=O)N[C@@H](Cc5c[nH]c6ccccc56)C(=O)N[C@@H](CCCCN)C(=O)N[C@@H](CCCCN)C(=O)O)[C@@H](C)CC)[C@@H](C)CC)C4=O)cc13)-c1cc3c(c(=O)n1C2)COC(=O)[C@]3(O)CC (stereo partly drawn) [Penetratin-linker #1-SN38]	< 3	16.5		
CCc1c2c(nc3ccc(OC(=O)[C@H]4CC[C@H](CNC(=O)C5CCC(CN6C(=O)CC(SC[C@H](NC(=O)[C@H](CCC(N)=O)NC(=O)[C@@H]7CCCN7C(=O)[C@@H]7CCCN7C(=O)[C@H](CCCNC(=N)N)NC(=O)[C@H](CCCNC(=N)N)NC(=O)[C@H](CCCNC(=N)N)NC(=O)[C@H](CCC(N)=O)NC(=O)[C@H](CCCNC(=N)N)NC(=O)[C@H](CCCNC(=N)N)NC(=O)[C@H](CCCCN)NC(=O)[C@H](CCCCN)NC(=O)[C@H](CCCNC(=N)N)NC(=O)CN)C(=O)O)C6=O)CC5)CC4)cc13)-c1cc3c(c(=O)n1C2)COC(=O)[C@]3(O)CC (stereo partly drawn) [Tat-linker #5-SN38]	335	122		
CCc1c2c(nc3ccc(OC(=O)[C@H]4CC[C@H](CNC(=O)C5CCC(CN6C(=O)CC(SCC(N)C(=O)N[C@H](CCCCN)C(=O)N[C@H](CCCNC(=N)N)C(=O)NCC(=O)N[C@H](CC(C)C)C(=O)N[C@H](CCCCN)C(=O)N[C@H](CC(C)C)C(=O)N[C@H](CCCNC(=N)N)C(=O)N[C@H](Cc7c[nH]cn7)C(=O)O)C6=O)CC5)CC4)cc13)-c1cc3c(c(=O)n1C2)COC(=O)[C@]3(O)CC (stereo partly drawn) [DPV51(D)-linker #5-SN38] (H-[ξC](X6)[dK][dR]G[dL][dK][dL][dR][dH]-OH; N-terminus and C-terminus assumed)				half-life ([1]; Table 12, CPP-linker #5-SN38 conjugates incl. D conformation, read-out: Human Plasma Half life time): 267 min; half-life ([2]; Table 12, CPP-linker #5-SN38 conjugates incl. D conformation): 175 min
CC[C@@]1(O)C(=O)OCc2c1cc1n(c2=O)Cc2cc3cc(OC(=O)CCCCCNC(=O)C4CCC(CN5C(=O)CC(SC[C@H](NC(=O)[C@H](CCC(N)=O)NC(=O)[C@@H]6CCCN6C(=O)[C@@H]6CCCN6C(=O)[C@H](CCCNC(=N)N)NC(=O)[C@H](CCCNC(=N)N)NC(=O)[C@H](CCCNC(=N)N)NC(=O)[C@H](CCC(N)=O)NC(=O)[C@H](CCCNC(=N)N)NC(=O)[C@H](CCCNC(=N)N)NC(=O)[C@H](CCCCN)NC(=O)[C@H](CCCCN)NC(=O)[C@H](CCCNC(=N)N)NC(=O)CN)C(=O)O)C5=O)CC4)ccc3nc2-1 (stereo partly drawn) [Tat-linker #4-10 Hydroxycamptothecin]				half-life [1, 5]: 7.3 min; half-life [2, 6]: 20 min
CCc1c2c(nc3ccc(OC(=O)[C@H]4CC[C@H](CNC(=O)C5CCC(CN6C(=O)CC(SC[C@H](NC(=O)[C@@H]7CCCN7C(=O)[C@H](CC(=O)O)NC(=O)[C@H](CCCNC(=N)N)NC(=O)[C@H](CCCCN)NC(=O)[C@H](CCCCN)NC(=O)CNC(=O)[C@H](CC(C)C)NC(=O)[C@H](CCCCN)NC(=O)CNC(=O)[C@H](CCCCN)NC(=O)[C@H](CCCCN)NC(=O)[C@H](CCCCN)NC(=O)[C@H](CCCNC(=N)N)NC(=O)[C@H](CCCCN)NC(=O)CN)C(=O)O)C6=O)CC5)CC4)cc13)-c1cc3c(c(=O)n1C2)COC(=O)[C@]3(O)CC (stereo partly drawn) [DPV7-linker #5-SN38] (H-GKRKKKGKLGKKRDPC(X6)-OH; N-terminus and C-terminus assumed)	162	112		
CCc1c2c(nc3ccc(OC(=O)[C@H]4CC[C@H](CNC(=O)CCOCCOCCOCCOCCNC(=O)CCN5C(=O)CC(SC[C@H](N)C(=O)N[C@H](C(=O)N[C@@H](CCCCN)C(=O)N[C@@H](CCCNC(=N)N)C(=O)NCC(=O)N[C@@H](CC(C)C)C(=O)N[C@@H](CCCCN)C(=O)N[C@@H](CC(C)C)C(=O)N[C@@H](CCCNC(=N)N)C(=O)N[C@@H](Cc6c[nH]cn6)C(=O)N[C@H](C(=O)N[C@@H](CCCNC(=N)N)C(=O)N6CCC[C@H]6C(=O)N[C@@H](CCCNC(=N)N)C(=O)N[C@H](C(=O)N[C@H](C(=O)N[C@@H](CCCNC(=N)N)C(=O)N[C@@H](CCSC)C(=O)N[C@@H](CC(=O)O)C(=O)N[C@H](C(=O)O)C(C)C)[C@@H](C)O)C(C)C)C(C)C)C(C)C)C5=O)CC4)cc13)-c1cc3c(c(=O)n1C2)COC(=O)[C@]3(O)CC (stereo partly drawn) [DPV1047-linker #6-SN38] (H-C(X9)VKRGLKLRHVRPRVTRMDV-OH; N-terminus and C-terminus assumed)			30	
CCc1c2c(nc3ccc(OC(=O)CCCCCCCCCCN4C(=O)CC(SC[C@H](N)C(=O)N[C@H](C(=O)N[C@@H](CCCCN)C(=O)N[C@@H](CCCNC(=N)N)C(=O)NCC(=O)N[C@@H](CC(C)C)C(=O)N[C@@H](CCCCN)C(=O)N[C@@H](CC(C)C)C(=O)N[C@@H](CCCNC(=N)N)C(=O)N[C@@H](Cc5c[nH]cn5)C(=O)N[C@H](C(=O)N[C@@H](CCCNC(=N)N)C(=O)N5CCC[C@H]5C(=O)N[C@@H](CCCNC(=N)N)C(=O)N[C@H](C(=O)N[C@H](C(=O)N[C@@H](CCCNC(=N)N)C(=O)N[C@@H](CCSC)C(=O)N[C@@H](CC(=O)O)C(=O)N[C@H](C(=O)O)C(C)C)[C@@H](C)O)C(C)C)C(C)C)C(C)C)C4=O)cc13)-c1cc3c(c(=O)n1C2)COC(=O)[C@]3(O)CC (stereo partly drawn) [DPV1047-linker #3-SN38] (H-C(X7)VKRGLKLRHVRPRVTRMDV-OH)			12	Half life time, Human plasma [1, 8]: 8 to 9 min
CC[C@@]1(O)C(=O)OCc2c1cc1n(c2=O)Cc2cc3cc(OC(=O)CCN4C(=O)CC(SC[C@H](N)C(=O)N[C@H](C(=O)N[C@@H](CCCCN)C(=O)N[C@@H](CCCNC(=N)N)C(=O)NCC(=O)N[C@@H](CC(C)C)C(=O)N[C@@H](CCCCN)C(=O)N[C@@H](CC(C)C)C(=O)N[C@@H](CCCNC(=N)N)C(=O)N[C@@H](Cc5c[nH]cn5)C(=O)N[C@H](C(=O)N[C@@H](CCCNC(=N)N)C(=O)N5CCC[C@H]5C(=O)N[C@@H](CCCNC(=N)N)C(=O)N[C@H](C(=O)N[C@H](C(=O)N[C@@H](CCCNC(=N)N)C(=O)N[C@@H](CCSC)C(=O)N[C@@H](CC(=O)O)C(=O)N[C@H](C(=O)O)C(C)C)[C@@H](C)O)C(C)C)C(C)C)C(C)C)C4=O)ccc3nc2-1 (stereo partly drawn) [DPV1047-linker #1-10 Hydroxycamptothecin] (H-C(X8)VKRGLKLRHVRPRVTRMDV-OH)				half-life [1, 5]: < 3 min; half-life [2, 6]: 3 min
PolyE(16)-MIC-SN38: non cell-penetrating PolyE(16) peptide coupled via MIC linker to SN38 (EEEEEEEEEEEEEEEEC([MIC-SN38]); not fully specified; reading uncertain; also: SN38 attached through MIC linker at Cys) [reference compound]				activity in the HCT 116 model ([3]; 40 μmol/kg, Q4D×3): not active; TGI (100-T/C %) ([3]; Table 5, Q4Dx3, DPV1047-BCH-SN38 30, PolyE(16)-MIC-SN38 40, irinotecan 48 μmol/kg): 30%
CCc1c2c(nc3ccc(OC(=O)CCN4C(=O)CC(SC[C@H](N)C(=O)N[C@H](C(=O)N[C@@H](CCCCN)C(=O)N[C@@H](CCCNC(=N)N)C(=O)NCC(=O)N[C@@H](CC(C)C)C(=O)N[C@@H](CCCCN)C(=O)N[C@@H](CC(C)C)C(=O)N[C@@H](CCCNC(=N)N)C(=O)N[C@@H](Cc5c[nH]cn5)C(=O)N[C@H](C(=O)N[C@@H](CCCNC(=N)N)C(=O)N5CCC[C@H]5C(=O)N[C@@H](CCCNC(=N)N)C(=O)N[C@H](C(=O)N[C@H](C(=O)N[C@@H](CCCNC(=N)N)C(=O)N[C@@H](CCSC)C(=O)N[C@@H](CC(=O)O)C(=O)N[C@H](C(=O)O)C(C)C)[C@@H](C)O)C(C)C)C(C)C)C(C)C)C4=O)cc13)-c1cc3c(c(=O)n1C2)COC(=O)[C@]3(O)CC (stereo partly drawn) [DPV1047-linker #1-SN38] (H-C(X5)VKRGLKLRHVRPRVTRMDV-OH)	< 3	11.3	< 5	Half life time, Human plasma [1, 8]: <5 min
